Measured values reported in US20240309070A1 (ADMARE THERAPEUTICS SOCIETY, published 2024).
Positions count from the first letter of the chain named.

B1: A048-H5L5 (antibody, V domains shown)
VH: QVTLKESGPVLVKPTETLTLTCTASGFSFSSSYYMCWVRQPPGKALEWIACIYTSSGSAYYANWAKGRFTISRDTSKSQVVLTMTNMDPVDTATYFCVRNAVGSSYYLYLWGQGTLVTVSS
VL: EQVLTQSPATLSLSPGERATLSCQASQSVAGNNYLSWYQQKPGQAPRLLIYSVSTLASGIPARFSGSGSGTDFTLTISSLEPEDFAVYYCQGYYNDGIWAFGQGTKLEIK
B2: A048-H3L1 (antibody, V domains shown)
VH: EVQLLESGGGLVQPGGSLRLSCAASGFSFSSSYYMCWVRQAPGKGLEWIACIYTSSGSAYYADSVKGRFTISRDNSKNTLYLQMNSLRAEDTAVYYCVRNAVGSSYYLYLWGQGTLVTVSS
VL: DIQMTQSPSTLSASVGDRVTITCQASQSVAGNNYLSWYQQKPGKAPKLLIYSVSTLASGVPSRFSGSGSGTEFTLTISSLQPDDFATYYCQGYYNDGIWAFGQGTKVEIK
B3: A048-H1L1 (antibody, V domains shown)
VH: B2 VH with D63N, S64W, V65A
VL: B2 VL
B4: A048-H4L1 (antibody, V domains shown)
VH: EVQLLESGGGLVQPGGSLRLSCAASGFSFSSSYYMCWVRQAPGKGLEWIACIYTSSGSAYYADSVKGRFTISRTSSTTVTLQMNSLRAEDTAVYYCVRNAVGSSYYLYLWGQGTLVTVSS
VL: B2 VL
B5: A048-H2L1 (antibody, V domains shown)
VH: B4 VH with D63N, S64W, V65A
VL: B2 VL
B6: A048-H1L2 (antibody, V domains shown)
VH: B2 VH with D63N, S64W, V65A
VL: B2 VL with D1A, I2Q, Q3V, M4L
B7: A048-H4L4 (antibody, V domains shown)
VH: B4 VH
VL: B2 VL with D1A, I2Q, Q3V, M4L, T10S, A45V, E72D, D83E, F85V
B8: A048-H3L3 (antibody, V domains shown)
VH: B2 VH
VL: B2 VL with T10S, A45V, E72D, D83E, F85V
B9: A048-H4L3 (antibody, V domains shown)
VH: B4 VH
VL: B2 VL with T10S, A45V, E72D, D83E, F85V
B10: A048-H1L3 (antibody, V domains shown)
VH: B2 VH with D63N, S64W, V65A
VL: B2 VL with T10S, A45V, E72D, D83E, F85V
B11: A048-H2L2 (antibody, V domains shown)
VH: B4 VH with D63N, S64W, V65A
VL: B2 VL with D1A, I2Q, Q3V, M4L
B12: A048-H2L3 (antibody, V domains shown)
VH: B4 VH with D63N, S64W, V65A
VL: B2 VL with T10S, A45V, E72D, D83E, F85V
B13: A048-H3L4 (antibody, V domains shown)
VH: B2 VH
VL: B2 VL with D1A, I2Q, Q3V, M4L, T10S, A45V, E72D, D83E, F85V
B14: A048-H1L4 (antibody, V domains shown)
VH: B2 VH with D63N, S64W, V65A
VL: B2 VL with D1A, I2Q, Q3V, M4L, T10S, A45V, E72D, D83E, F85V
B15: A048-H3L2 (antibody, V domains shown)
VH: B2 VH
VL: B2 VL with D1A, I2Q, Q3V, M4L
B16: A048-H4L2 (antibody, V domains shown)
VH: B4 VH
VL: B2 VL with D1A, I2Q, Q3V, M4L
B17: A048-H2L4 (antibody, V domains shown)
VH: B4 VH with D63N, S64W, V65A
VL: B2 VL with D1A, I2Q, Q3V, M4L, T10S, A45V, E72D, D83E, F85V
B18: A048 parental (antibody, V domains shown)
VH: QEQLEESGGGLVKPEGSLTLTCTASGFSFSSSYYMCWVRQAPGRGLEWIACIYTSSGSAYYANWAKGRFTISRTSSTTVTLQMTRLTAADTATYFCVRNAVGSSYYLYLWGPGTLVTVSS
VL: AQVLTQTPSPVSAAVGGTVTISCQASQSVAGNNYLSWYQQKPGQPPNLLIYSVSTLASGVPSRFKGSGSGTQFTLTISDLECDDAATYYCQGYYNDGIWAFGGGTEVVVK
notes: also called A048 rabbit parental antibody; A048 parental anti-B5 hIgG1

biological target: T1, Copenhagen B5 on cells infected with VVCopenhagen (YFP) virus (Vaccinia virus, Copenhagen strain, UniProt P21115 18-317); test: flow cytometry, HT29 cells infected with Copenhagen VV
T1 construct: also called VV B5

Binder | EC50
B1 | 2.39 nM
B2 | 0.89 nM
B3 | 2.37 nM
B4 | 1.34 nM
B5 | 1.48 nM
B6 | 0.77 nM
B7 | 1.32 nM
B8 | 1.03 nM
B9 | 1.12 nM
B10 | 1.88 nM
B11 | 1.28 nM
B12 | 0.77 nM
B13 | 1.96 nM
B14 | 0.98 nM
B15 | 1.87 nM
B16 | 1.78 nM
B17 | 2.85 nM
B18 | 1.08 nM

biological target: T2, VV B5 monomer protein (Wyeth Vaccinia strain B5 with C-terminal AVI tag and HIS6 tag) (Vaccinia virus, Wyeth strain, UniProt O57254 18-279); test: ELISA, B5 monomer coated
T2 construct: also called B5 protein; VV B5 protein

Binder | EC50
B1 | 0.104 nM
B2 | 0.0854 nM
B3 | 0.0862 nM
B4 | 0.0953 nM
B5 | 0.0969 nM
B6 | 0.0717 nM
B7 | 0.114 nM
B8 | 0.0979 nM
B9 | 0.114 nM
B10 | 0.0802 nM
B11 | 0.0914 nM
B12 | 0.0515 nM
B13 | 0.106 nM
B14 | 0.102 nM
B15 | 0.0835 nM
B16 | 0.107 nM
B17 | 0.0844 nM
B18 | 0.116 nM

biological target: T2, VV B5 monomer protein (Wyeth Vaccinia …); test: BLI (Octet), antibody on AHC sensor, B5 monomer analyte

Binder | Kd
B15 | 3 nM

biological target: T3, Western Reserve B5 on cells infected with VVddeGFP Western Reserve virus (Vaccinia virus, Western Reserve strain, UniProt Q01227 18-317); test: flow cytometry, SKOV3 cells infected with WR VV
T3 construct: also called VV B5; WR

Binder | EC50
B1 | 1.36 nM
B2 | 0.94 nM
B3 | 1.03 nM
B4 | 0.88 nM
B5 | 0.53 nM
B6 | 0.76 nM
B7 | 2.36 nM
B8 | 0.83 nM
B9 | 1.37 nM
B10 | 1.2 nM
B11 | 0.8 nM
B12 | 0.55 nM
B13 | 1.28 nM
B14 | 0.44 nM
B15 | 0.67 nM
B16 | 0.71 nM
B17 | 0.69 nM
B18 | 3.98 nM

biological target: T2, VV B5 monomer protein (Wyeth Vaccinia …); test: BLI (Octet), antibody on AHC sensor, B5 monomer analyte; remark: another data set of the same source

Binder | Kd | koff | kon
B1 | 8.55 nM | 0.000521 s⁻¹ | 60800 M⁻¹ s⁻¹
B2 | 4.37 nM | 0.000468 s⁻¹ | 107000 M⁻¹ s⁻¹
B3 | 9.96 nM | 0.000763 s⁻¹ | 76600 M⁻¹ s⁻¹
B4 | 6.72 nM | 0.000478 s⁻¹ | 71000 M⁻¹ s⁻¹
B5 | 7.21 nM | 0.000672 s⁻¹ | 93000 M⁻¹ s⁻¹
B6 | 9.71 nM | 0.000764 s⁻¹ | 78600 M⁻¹ s⁻¹
B7 | 9.6 nM | 0.000549 s⁻¹ | 57000 M⁻¹ s⁻¹
B8 | 7.71 nM | 0.000733 s⁻¹ | 94900 M⁻¹ s⁻¹
B9 | 6.31 nM | 0.000476 s⁻¹ | 75200 M⁻¹ s⁻¹
B10 | 8.76 nM | 0.000846 s⁻¹ | 96400 M⁻¹ s⁻¹
B11 | 7.91 nM | 0.000698 s⁻¹ | 88100 M⁻¹ s⁻¹
B12 | 9.23 nM | 0.000759 s⁻¹ | 82100 M⁻¹ s⁻¹
B13 | 8.57 nM | 0.000722 s⁻¹ | 84100 M⁻¹ s⁻¹
B14 | 12 nM | 0.000953 s⁻¹ | 79400 M⁻¹ s⁻¹
B15 | 3.83 nM | 0.000397 s⁻¹ | 103000 M⁻¹ s⁻¹
B16 | 7.69 nM | 0.000481 s⁻¹ | 62400 M⁻¹ s⁻¹
B17 | 6.23 nM | 0.000512 s⁻¹ | 81600 M⁻¹ s⁻¹
B18 | 9.51 nM | 0.000601 s⁻¹ | 62400 M⁻¹ s⁻¹

biological target: T3, Western Reserve B5 on cells infected …; test: flow cytometry, HT29 cells infected with WR VV

Binder | EC50
B1 | 2.28 nM
B2 | 0.86 nM
B3 | 0.97 nM
B4 | 2.77 nM
B5 | 1.37 nM
B6 | 2.2 nM
B7 | 3.05 nM
B8 | 1.81 nM
B9 | 3.5 nM
B10 | 3.48 nM
B11 | 1.71 nM
B12 | 1.73 nM
B13 | 3.78 nM
B14 | 0.68 nM
B15 | 1.32 nM
B16 | 6.59 nM
B17 | 1.68 nM
B18 | 3.51 nM
